Experimental data reported in publication PMC10998858, “Structure and mechanisms of transport of human Asc1/CD98hc amino acid transporter” (Nature Communications, 2024).

Target: T1, human CD98hc (SLC3A2), heavy subunit of the Asc1/CD98hc heterodimer (human, UniProt P08195-2 1-529, N-glycosylation at residues 264, 280, 323 and 405; disulfide bridge from Cys 109 to Cys 154 of Asc1)
T1 construct: CD98hc (SLC3A2), human; residues 61-529 were modelled and the disulfide cysteine is numbered C109, which fits the 529-residue isoform (isoform f is named only for the HeLa construct); also called heavy chain; ancillary subunit; source: HEK293-6E, co-transfected with Asc1, purified as heterodimer in digitonin (Ni-NTA, size exclusion chromatography)
T1 sequence: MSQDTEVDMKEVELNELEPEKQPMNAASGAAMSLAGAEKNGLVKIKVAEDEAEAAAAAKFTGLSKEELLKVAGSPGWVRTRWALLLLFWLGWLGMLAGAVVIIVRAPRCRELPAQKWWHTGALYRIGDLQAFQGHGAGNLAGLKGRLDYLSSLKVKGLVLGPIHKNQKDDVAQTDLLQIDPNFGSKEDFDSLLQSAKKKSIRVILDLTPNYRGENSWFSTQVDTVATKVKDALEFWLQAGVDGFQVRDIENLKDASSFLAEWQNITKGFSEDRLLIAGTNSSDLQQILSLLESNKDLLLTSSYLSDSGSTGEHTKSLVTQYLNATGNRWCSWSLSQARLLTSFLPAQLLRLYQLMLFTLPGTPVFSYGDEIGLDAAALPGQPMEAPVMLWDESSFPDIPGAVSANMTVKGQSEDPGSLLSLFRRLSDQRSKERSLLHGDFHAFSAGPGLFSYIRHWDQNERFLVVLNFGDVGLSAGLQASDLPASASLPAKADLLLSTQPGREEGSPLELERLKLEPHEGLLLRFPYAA
Assay: cryo-EM structure; heterodimer co-expressed in HEK293-6E, solubilised in 1% digitonin, purified by Ni-NTA and Superdex200 in 20 mM Tris-HCl pH 8.0, 150 mM NaCl, 0.1% digitonin; 1.2-1.5 mg/ml, 10 mM D-Ser added before vitrification (no ligand density found)
Settings: both partners purified

binding result: binds
B1: human Asc1 (SLC7A10), light subunit of the Asc1/CD98hc heterodimer (natural protein)
chain: MAGHTQQPSGRGNPRPAPSPSPVPGTVPGASERVALKKEIGLLSACTIIIGNIIGSGIFISPKGVLEHSGSVGLALFVWVLGGGVTALGSLCYAELGVAIPKSGGDYAYVTEIFGGLAGFLLLWSAVLIMYPTSLAVISMTFSNYVLQPVFPNCIPPTTASRVLSMACLMLLTWVNSSSVRWATRIQDMFTGGKLLALSLIIGVGLLQIFQGHFEELRPSNAFAFWMTPSVGHLALAFLQGSFAFSGWNFLNYVTEEMVDARKNLPRAIFISIPLVTFVYTFTNIAYFTAMSPQELLSSNAVAVTFGEKLLGYFSWVMPVSVALSTFGGINGYLFTYSRLCFSGAREGHLPSLLAMIHVRHCTPIPALLVCCGATAVIMLVGDTYTLINYVSFINYLCYGVTILGLLLLRWRRPALHRPIKVNLLIPVAYLVFWAFLLVFSFISEPMVCGVGVIIILTGVPIFFLGVFWRSKPKCVHRLTESMTHWGQELCFVVYPQDAPEEEENGPCPPSLLPATDKPSKPQ
modifications: disulfide bridge from Cys 154 to Cys 109 of CD98hc
notes: Asc1 (SLC7A10), human; residues 41-489 were modelled in the cryoEM map; The final construct has no GFP; a version with C-terminal eGFP was used only in preliminary trials; also called hAsc1; light chain; source: HEK293-6E, co-transfected with CD98hc, purified as heterodimer in digitonin (Ni-NTA, size exclusion chromatography); not shown: 6xHis, C-terminal, kept
